Test results published in PMC6912275, “Identification of Novel Adenylyl Cyclase 5 (AC5) Signaling Networks in D1 and D2 Medium Spiny Neurons using Bimolecular Fluorescence Complementation Screening” (Cells, 2019).

Tests used:
Endogenous NAPA = target: T1, Endogenous NAPA (human (endogenous in HEK 293), UniProt P54920 1-295); assay: co-IP; endogenous PPP2CB or NAPA immunoprecipitated with its antibody and protein A agarose from HEK AC5/D2L cell lysate (0.5% C12E10, 150 mM NaCl, pH 7.5); AC activity measured in the immunoprecipitate with activated Gαs and FSK; cells under vehicle conditions (PPP2CB) or treated overnight with quinpirole (NAPA); conditions: partners not purified
T1 construct: NSF attachment protein alpha, endogenous in HEK 293 cells; also called NSF attachment protein alpha; source: endogenous, HEK AC5/D2L cell lysate
T1 sequence (looked up): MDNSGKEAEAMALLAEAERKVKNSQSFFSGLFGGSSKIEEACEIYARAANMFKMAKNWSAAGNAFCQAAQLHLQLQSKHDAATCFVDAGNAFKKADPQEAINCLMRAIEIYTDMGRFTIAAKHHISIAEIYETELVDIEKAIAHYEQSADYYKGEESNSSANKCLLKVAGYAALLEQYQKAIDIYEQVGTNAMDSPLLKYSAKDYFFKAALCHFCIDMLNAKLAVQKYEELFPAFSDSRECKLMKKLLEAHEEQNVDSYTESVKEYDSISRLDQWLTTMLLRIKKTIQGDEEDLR

Endogenous PPP2CB = target: T2, Endogenous PPP2CB (human (endogenous in HEK 293), UniProt P62714 1-309); assay: as above; conditions: partners not purified
T2 construct: protein phosphatase 2A catalytic subunit beta, endogenous in HEK 293 cells; also called protein phosphatase 2A (PP2A) catalytic subunit; source: endogenous, HEK AC5/D2L cell lysate
T2 sequence (P62714 whole entry): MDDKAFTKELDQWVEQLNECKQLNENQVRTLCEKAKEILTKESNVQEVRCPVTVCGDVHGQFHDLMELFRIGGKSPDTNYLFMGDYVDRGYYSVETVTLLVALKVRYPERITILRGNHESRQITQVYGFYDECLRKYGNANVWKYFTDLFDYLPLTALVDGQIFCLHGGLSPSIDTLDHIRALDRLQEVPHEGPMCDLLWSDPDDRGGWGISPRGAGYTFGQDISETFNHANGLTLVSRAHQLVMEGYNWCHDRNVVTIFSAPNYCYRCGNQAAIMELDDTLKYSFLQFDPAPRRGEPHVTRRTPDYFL

- fold AC activity in the immunoprecipitate against the vehicle-treated group (Endogenous NAPA): 4.5 fold
- fold AC activity in the immunoprecipitate against the control (Endogenous PPP2CB): 4 fold
B1: human AC type 5 (in HEK-AC5/D2L cells) (enzyme)
chain: not shown
notes: adenylyl cyclase type 5 (AC5), human; Found in the immunoprecipitates by its adenylyl cyclase activity, not by a blot; also called adenylyl cyclase type 5; source: HEK 293 cells stably expressing human D2L and human AC5 (HEK-AC5/D2L), in lysate
